This is an account of results in patent US20090060919A1 (AstraZeneca / MedImmune, published 2009).

Experiment [1] has as its target T1, human IgEλ (U266 derived) (human, UniProt P01854-1 1-428).
T1 construct: Whole IgE purified from U266 cells (Ikeyama et al. 1986); labelled with europium cryptate or biotin in some assays; also called human IgE (U266-derived); human IgE lambda
Description: flow cytometry: inhibition of IgE binding to CD23 on IM9 cells. (In flow cytometry, cells or beads pass a laser one at a time.)
Description: Antibodies were evaluated for inhibition of the IgE/CD23 interaction. […] In brief, titrations of the test IgG were mixed with IgE prior to incubation with 1M9 cells.
Assay plates were incubated on ice for 20 minutes in the dark before centrifuging at 2000 rpm for 2 minutes and washing with 2×200 uL of Flow buffer as described above. Cells were resuspended in 100 uL Cell Fix (BD biosciences) and analysed using a FACSCalibur (BD Biosciences) to detect FL2 staining.

Experiment [2] concerns the target T1, human IgEλ (U266 derived). Description: cell-based or functional assay.
In experiment [3] the target is T1, human IgEλ (U266 derived). The experiment is described as follows: SPR (BIAcore 2000): IgG captured on protein G', IgE as analyte, bivalent analyte model; geomean. (In SPR one partner is held on a chip, and binding of the other changes the refractive index at the surface.)
Description: (§1) In brief, Protein G′ (Sigma Aldrich, P4689) was covalently coupled to the surface of a CM5 sensor chip using standard amine coupling reagents according to manufacturer's instructions (BIAcore). […] The resulting sensorgrams were evaluated using BIA evaluation 3.1 software and fitted to a bivalent analyte model, to provide relative binding data.
In experiment [4] the target is T1, human IgEλ (U266 derived). The description is as above. The source holds these as a separate data set.
Description: as §1
For experiment [5], the target named is T1, human IgEλ (U266 derived). Description: cell-based or functional assay. The source holds these as a separate data set.
Experiment [6] concerns the target T1, human IgEλ (U266 derived). The experiment is described as follows: HTRF competition: scFv against Eu-cryptate human IgE binding to human FcεRI-Fc; geomean. (In general: Time-resolved FRET reads energy transfer from a long-lived donor to a nearby acceptor.)
The next experiment has as its target T2, IgE in human serum (human, UniProt P01854-1 1-428).
T2 construct: also called IgE in serum; free IgE
The experiment is described as follows: ELISA: free serum IgE captured on coated FcERI-Fc-His after mixing serum with antibody; representative experiment.

Experiment [7] addresses T3, human IgE (human, UniProt P01854-1 1-428).
T3 construct: lead-isolation RBL-ER51 assays: Calbiochem or U266-derived; also called IgE (Calbiochem or U266-derived); purified human IgE
The experiment is described as follows: KinExA.

For experiment [8], the target named is T3, human IgE. Description: cell-based or functional assay.

Residue numbers refer to the chain shown, from its start. Read-outs that look alike come from different tables or passages of the source.

T3 sequence (P01854 other isoform, or with tags, fused parts or gaps): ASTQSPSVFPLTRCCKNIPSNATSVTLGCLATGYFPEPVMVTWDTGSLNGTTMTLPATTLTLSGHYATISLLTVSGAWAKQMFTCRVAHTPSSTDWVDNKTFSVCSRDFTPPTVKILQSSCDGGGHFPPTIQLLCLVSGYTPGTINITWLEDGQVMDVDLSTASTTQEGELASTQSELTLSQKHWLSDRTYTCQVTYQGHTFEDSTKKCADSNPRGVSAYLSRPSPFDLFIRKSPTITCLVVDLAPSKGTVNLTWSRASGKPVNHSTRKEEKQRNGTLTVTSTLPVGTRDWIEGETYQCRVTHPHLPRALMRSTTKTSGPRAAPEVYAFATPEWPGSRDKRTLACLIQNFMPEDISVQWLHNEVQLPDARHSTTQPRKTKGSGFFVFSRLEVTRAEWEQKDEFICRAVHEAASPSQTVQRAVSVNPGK
T1 sequence (P01854 other isoform, or with tags, fused parts or gaps): as above
T2 sequence (P01854 other isoform, or with tags, fused parts or gaps): as above
Description for IgE in human serum: Serum samples were prepared from blood samples from human donors. […] To reduce background binding, plates were subsequently incubated with 200 μl/well of block buffer consisting of PBS containing 0.5% BSA, incubated at room temperature for 2 hours, and washed three times with PBST as described above. […] The plates were sealed and samples incubated at room temperature for 2 hours. To remove unbound sample, plates were washed three times with PBST as described. […] The plates were then sealed again, and incubated for 1 hour at room temperature. […] The conjugate was diluted 1:25000 in PBST, 150 μl added per well, the plates sealed, and incubated for 1 hour at room temperature. The plates were then washed three times with PBST as described. TMB-substrate solution (DAKO Substrate-Chromogen, No. S1599), 150 μl/well, was then added to each well and the plates incubated for 10 minutes at room temperature.

B1: Antibody 8 IgG (antibody, V domains shown)
VH: QVQLVQSGAEVKKPGATVKLSCKVYGYIFTDYNIYWVRQAPGKGLEWMGLIDPDNGETFYAEKFQGRATMTADTSSDRAYMELTSLTFEDTATYYCATVLGRWIKGGYDYWGRGTLVTVSS
VL: QSVLTQPPSVSGAPGQRVTISCTGSSSNIGAGYDVHWYQQLPGTAPKLLIYDNFNRPSGVPDRFSGSKSGTSASLAIIGLQTEDEADYYCQSYDSPTHTSPFGTGTKLTVL
notes: Whole human IgG (section 1.4: IgG1)
Broadly, the IC50 is the concentration that inhibits the measured activity by half. Read a high IC50 as weaker potency in that assay. B1 came in with an IC50 in experiment [1] of 16.5 nM. In experiment [2], the “RBL-ER51 calcium signalling IC50 (Geomean), Human IgE” value (shortened to “RBL-ER51 calcium signalling IC50”) came to 0.112 nM. This molecule also displayed a Kd in experiment [3] of 2.6 nM.

B2: Antibody 11 GL IgG (antibody, V domains shown)
VH: B1 VH with Q1E, L20I, T84S, T87R, T93V, L100M, R102K
VL: B1 VL with I78T, T82A, H98L
notes: Germlined IgG
In experiment [4], B2 came in with a Kd of 1.5 nM. In addition, in experiment [5], the “RBL-ER51 calcium signalling IC50” value was determined as 0.084 nM.

B3: Antibody 1 IgG (antibody, V domains shown)
VH: B1 VH with G101H, W103R, I104L
VL: B1 VL with P96S, T97L, H98S, T99G, P101L
notes: IgG1 or IgG2 vectors named; also called parent antibody
Take B3: the IC50 in experiment [1] turned out to be 16 nM. This lies in the double-digit nanomolar range.

B4: Antibody 8 GL IgG (antibody, V domains shown)
VH: B1 VH with Q1E, L20I, T84S, T87R, T93V
VL: B1 VL with I78T, T82A
notes: Germlined IgG
Molecule B4 came in with a Kd in experiment [4] of 2.5 nM. For the same molecule, the “RBL-ER51 calcium signalling IC50” value in experiment [5] was determined as 0.085 nM.

B5: Antibody 12 scFv (scFv, V domains shown)
VH: B1 VH with L100M, R102K
VL: B1 VL with P96S, T97I, H98D, T99H
notes: Purified scFv, non-germlined
In experiment [6], B5 gave an IC50 of 3 nM.

B6: Antibody 13 scFv (scFv, V domains shown)
VH: B1 VH with L100M, R102K
VL: B1 VL with P96N, T97I, H98L, T99Y
notes: Purified scFv, non-germlined
On to B6, for which the IC50 in [6] turned out to be 2 nM. This IC50 lies about 1.5-fold lower than the previous one.

B7: Antibody 11 IgG (antibody, V domains shown)
VH: B1 VH with L100M, R102K
VL: B1 VL with H98L
notes: as for B1
Turning to B7, the figures for the IC50 (in the experiment with IgE in human serum; in [1]) were 0.202 nM and 23 nM, respectively. Also, in experiment [2], the “RBL-ER51 calcium signalling IC50” value was determined as 0.069 nM. Besides, the values for the Kd (with human IgE [7]; in experiment [3]) were 0.0063 nM and 1.6 nM, respectively. Besides, in the experiment with human IgE [8], the “induction of IgE positive human B cells (intracellular IgE, flow cytometry), IC50” value was 1.6 nM. In addition, the “β-hexosaminidase release of LAD2 mast cells, IC50” value in the experiment with human IgE [8] was found to be 0.04 nM.
